T1: human Nectin-4 (human, UniProt Q96NY8 32-510)
T1 construct: whole, on cells; Cell-surface target of the FACS, endocytosis and proliferation assays (CHO-huNectin4 S8 cells, BT474 cells); the assay field says which cells; also called huNectin4; PVRL4
T1 sequence (looked up): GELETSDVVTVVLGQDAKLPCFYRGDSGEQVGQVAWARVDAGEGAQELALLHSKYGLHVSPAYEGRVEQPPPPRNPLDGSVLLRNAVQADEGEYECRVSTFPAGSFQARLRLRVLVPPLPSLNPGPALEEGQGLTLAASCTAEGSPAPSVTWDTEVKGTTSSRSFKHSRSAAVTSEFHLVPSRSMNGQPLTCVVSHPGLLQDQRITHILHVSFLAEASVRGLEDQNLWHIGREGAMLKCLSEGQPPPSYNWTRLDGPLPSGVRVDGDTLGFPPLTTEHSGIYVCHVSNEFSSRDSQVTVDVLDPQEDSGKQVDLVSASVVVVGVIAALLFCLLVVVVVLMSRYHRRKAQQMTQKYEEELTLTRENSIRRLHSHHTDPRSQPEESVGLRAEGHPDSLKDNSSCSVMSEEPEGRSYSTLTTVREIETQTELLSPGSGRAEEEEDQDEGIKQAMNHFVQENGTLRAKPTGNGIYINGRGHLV

T2: murine Nectin4 (NP_082169) (murine, UniProt Q8R007 31-508)
T2 construct: whole, on cells; also called muNectin4
T2 sequence (looked up): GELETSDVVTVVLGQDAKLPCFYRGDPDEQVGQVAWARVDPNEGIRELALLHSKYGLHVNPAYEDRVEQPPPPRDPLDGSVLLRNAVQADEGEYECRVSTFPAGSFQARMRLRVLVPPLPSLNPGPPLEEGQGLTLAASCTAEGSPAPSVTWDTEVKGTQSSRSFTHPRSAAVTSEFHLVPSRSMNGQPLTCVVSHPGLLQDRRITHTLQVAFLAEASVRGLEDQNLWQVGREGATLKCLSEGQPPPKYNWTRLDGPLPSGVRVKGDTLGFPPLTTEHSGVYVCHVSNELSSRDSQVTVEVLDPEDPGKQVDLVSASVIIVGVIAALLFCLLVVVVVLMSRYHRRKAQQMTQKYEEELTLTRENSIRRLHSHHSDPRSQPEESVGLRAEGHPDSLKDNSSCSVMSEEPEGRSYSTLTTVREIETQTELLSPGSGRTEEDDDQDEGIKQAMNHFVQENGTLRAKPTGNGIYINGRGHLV

T3: His-tagged human NECTIN4 (human, UniProt Q96NY8 32-349)
T3 construct: Antigen of the BIAcore assay; also called antigen; recombinant NECTIN4 protein; not shown: His tag
T3 sequence: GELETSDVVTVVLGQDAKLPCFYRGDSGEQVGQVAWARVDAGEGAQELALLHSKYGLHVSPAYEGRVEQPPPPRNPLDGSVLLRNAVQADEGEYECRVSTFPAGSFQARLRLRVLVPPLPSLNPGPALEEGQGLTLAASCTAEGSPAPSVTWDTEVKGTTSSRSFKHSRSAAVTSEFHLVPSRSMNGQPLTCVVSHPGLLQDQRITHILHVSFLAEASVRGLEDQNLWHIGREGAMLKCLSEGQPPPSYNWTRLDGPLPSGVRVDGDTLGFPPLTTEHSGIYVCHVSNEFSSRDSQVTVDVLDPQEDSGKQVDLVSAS

T4: human Nectin-1(C-6His), Novoprotein Cat# C492 (human, UniProt Q15223 31-334, limits assumed)
T4 sequence: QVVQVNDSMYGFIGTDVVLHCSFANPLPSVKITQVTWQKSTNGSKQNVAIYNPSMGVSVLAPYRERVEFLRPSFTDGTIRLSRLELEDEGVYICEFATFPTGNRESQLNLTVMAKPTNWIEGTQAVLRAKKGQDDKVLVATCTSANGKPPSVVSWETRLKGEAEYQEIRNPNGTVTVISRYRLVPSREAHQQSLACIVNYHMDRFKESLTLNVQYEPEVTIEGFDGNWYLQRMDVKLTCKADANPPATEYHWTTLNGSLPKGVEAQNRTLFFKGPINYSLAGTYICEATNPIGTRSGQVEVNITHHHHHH

B1: Enfortumab (antibody, human IgG1, kappa, V domains shown)
VH: EVQLVESGGGLVQPGGSLRLSCAASGFTFSSYNMNWVRQAPGKGLEWVSYISSSSSTIYYADSVKGRFTISRDNAKNSLSLQMNSLRDEDTAVYYCARAYYYGMDVWGQGTTVTVSS
VL: DIQMTQSPSSVSASVGDRVTITCRASQGISGWLAWYQQKPGKAPKFLIYAASTLQSGVPSRFSGSGSGTDFTLTISSLQPEDFATYYCQQANSFPPTFGGGTKVEIKR
notes: also called control antibody Enfortumab
B2: 42D20 hz10 (antibody, V domains shown)
VH: QVQLQESGPGLVKPSETLSLTCTVSGFSLIDYGVSWIRQPPGKGLEWIGVIWGDGKIYYNSVLKSRVTISKDNSKSQVSLKLSSVTAADTAVYYCAKQGGLLFYAMDYWGQGTLVTVSS
VL: DIVMTQSPDSLAVSLGERATINCKSSQSLLNSYSQKNYLAWYQQKPGQPPKLLIYFASTRESGVPDRFSGSGSGTDFTLTISSLQAEDVAVYYCQQHYNTPFTFGAGTKLELKR
notes: Humanized

Tests used:
human Nectin-4 = molecular target: T1, human Nectin-4; test: FACS on BT474 cells
Procedure: The solutions of different concentrations were added to 384-well plates, 10 µl per well.
BT474 cells (breast cancer cells) expressing Nectin-4 on the cell surface were collected by centrifugation at 100 g at room temperature for 5 minutes, and then the cells were washed with PBS containing 0.5% BSA once and were centrifuged at 100 g at room temperature for 5 minutes. […] After incubation at 4° C. for 1 hour, fluorescently labeled goat anti-human IgG secondary antibody was added. After continued incubation at 4° C. for 1 hour, mean fluorescence readings of the cell populations were analyzed by a flow cytometer.
The experiment results of the binding of engineered humanized molecules of the present disclosure to BT474 cells by FACS assay are shown in panels 3B and 3C in FIG. 3 and Tables 6 and 7.

[1] = molecular target: T2, murine Nectin4 (NP_082169); test: FACS on HEK-muNectin4 cells
His-tagged human NECTIN4 = molecular target: T3, His-tagged human NECTIN4; test: SPR (BIAcore S200), antigen on CAP chip, antibody as analyte, 1:1 fit
Procedure: Interactions between the antibodies and the antigen were measured using a BIAcore instrument S200 from GE. Referring to the instructions provided in Biotin Capture Kit from GE Healthcare, the analytical channel and the control sample channel on CAP sensor chip were first coupled with antigen i.e. His-tagged human NECTIN4, then samples containing antibodies (diluted 3-fold from an initial concentration of 20 nM respectively and solutions of each antibody of 8 concentrations were obtained totally, and the concentration 0.741 nM was set to be repeated) were allowed to flow through both the analytical channel and the sample channel, and the photoreactions upon antibody-antigen binding were measured. Association constant Kon and dissociation constant Koff and affinity constant KD of each antibody were finally obtained by instrument software fitting (1:1 binding mode) analysis.

[2] = molecular target: T4, human Nectin-1(C-6His), Novoprotein …; test: ELISA, plate coated with 1 µg/ml human Nectin-1(C-6His), absorbance at 450 nm. The text names only a goat anti-rabbit HRP secondary antibody
Procedure: Plates were coated with 1 µg/ml of the antigens and incubated at 4° C. overnight; next, antibodies serially diluted were added into the plates. Finally, the HRP-labeled secondary antibody was added, and absorbance at 450 nm was detected.

| Binder | EC50 (human Nectin-4) [µg/mL] | EC50 [1] [µg/mL] | Kd (His-tagged human NECTIN4) [nM] | binding result [2] |
| --- | --- | --- | --- | --- |
| B1 | 0.0503 | 2.43 | 4.94 | no binding (tested: about 2.5 µg/ml (last point)) |
| B2 | 0.0528 | 8.74 | 1.14 | no binding (tested: about 2.5 µg/ml (last point)) |
